Where a chain is given by its changes, count along the chain named.

The assay concerns the target T1, murine fibroblast activation protein (FAP) (murine, UniProt P97321 1-761).
T1 construct: whole, on cells; also called mFAP; murine FAP
T1 sequence: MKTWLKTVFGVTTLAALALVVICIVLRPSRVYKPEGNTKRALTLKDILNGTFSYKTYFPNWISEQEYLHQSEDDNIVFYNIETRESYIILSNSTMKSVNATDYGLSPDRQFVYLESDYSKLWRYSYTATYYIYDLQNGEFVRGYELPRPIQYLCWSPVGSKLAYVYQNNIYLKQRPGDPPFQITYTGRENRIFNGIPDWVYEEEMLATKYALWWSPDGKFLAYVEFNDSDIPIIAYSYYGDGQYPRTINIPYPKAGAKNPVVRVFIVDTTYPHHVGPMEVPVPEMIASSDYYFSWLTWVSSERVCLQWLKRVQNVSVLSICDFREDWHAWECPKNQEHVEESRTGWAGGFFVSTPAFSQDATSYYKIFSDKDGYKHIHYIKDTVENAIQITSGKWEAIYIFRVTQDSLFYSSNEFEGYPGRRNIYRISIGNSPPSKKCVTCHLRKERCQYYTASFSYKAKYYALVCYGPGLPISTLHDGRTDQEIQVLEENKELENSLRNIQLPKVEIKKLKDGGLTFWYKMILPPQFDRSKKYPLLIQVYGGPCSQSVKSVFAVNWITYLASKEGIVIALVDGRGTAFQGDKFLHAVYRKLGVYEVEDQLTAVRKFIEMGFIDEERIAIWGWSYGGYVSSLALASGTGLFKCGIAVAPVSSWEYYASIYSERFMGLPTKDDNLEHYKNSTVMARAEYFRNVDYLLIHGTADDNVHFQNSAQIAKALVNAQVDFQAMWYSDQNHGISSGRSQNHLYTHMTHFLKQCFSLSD
The assay is described as follows: flow cytometry on target cells (data not shown).

B1: m38-pMHC-I-anti-FAP-IgG (other)
heavy 1: SSPPMFRVGCGGSGGGGSGGGGSIQKTPQIQVYSRHPPENGKPNILNCYVTQFHPPHIEIQMLKNGKKIPKVEMSDMSFSKDWSFYILAHTEFTPTETDTYACRVKHASMAEPKTVYWDRDMGGGGSGGGGSGGGGSGGGGSGPHSLRYFVTAVSRPGLGEPRYMEVGYVDDTEFVRFDSDAENPRYEPRARWMEQEGPEYWERETQKAKGNEQSFRVDLRTLLGCYNQSKGGSHTIQVISGCEVGSDGRLLRGYQQYAYDGCDYIALNEDLKTWTAADMAALITKHKWEQAGEAERLRAYLEGTCVEWLRRYLKNGNATLLRTDSPKAHVTHHSRPEDKVTLRCWALGFYPADITLTWQLNGEELIQDMELVETRPAGDGTFQKWASVVVPLGKEQYYTCHVYHQGLPEPLTLRWGSEVQLLESGGGLVQPGGSLRLSCAASGFTFSSHAMSWVRQAPGKGLEWVSAIWASGEQYYADSVKGRFTISRDNSKNTLYLQMNSLRAEDTAVYYCAKGWLGNFDYWGQGTLVTVSSAKTTAPSVYPLAPVCGGTTGSSVTLGCLVKGYFPEPVTLTWNSGSLSSGVHTFPALLQSGLYTLSSSVTVTSNTWPSQTITCNVAHPASSTKVDKKIEPRVPITQNPCPPLKECPPCAAPDAAGGPSVFIFPPKIKDVLMISLSPMVTCVVVDVSEDAPDVQISWFVNNVEVHTAQTQTHREDYNSTLRVVSALPIQHQDWMSGKEFKCKVNNRALGSPIEKTISKPRGPVRAPQVCVLPPPAEEMTKKEFSLSCAITGFLPAEIAVDWTSNGRTEQNYKNTATVLDSDGSYFMVSKLRVQKSTWERGSLFACSVVHEGLHNHLTTKTISRSLGK
heavy 2: EVQLLESGGGLVQPGGSLRLSCAASGFTFSSHAMSWVRQAPGKGLEWVSAIWASGEQYYADSVKGRFTISRDNSKNTLYLQMNSLRAEDTAVYYCAKGWLGNFDYWGQGTLVTVSSAKTTAPSVYPLAPVCGGTTGSSVTLGCLVKGYFPEPVTLTWNSGSLSSGVHTFPALLQSGLYTLSSSVTVTSNTWPSQTITCNVAHPASSTKVDKKIEPRVPITQNPCPPLKECPPCAAPDAAGGPSVFIFPPKIKDVLMISLSPMVTCVVVDVSEDAPDVQISWFVNNVEVHTAQTQTHREDYNSTLRVVSALPIQHQDWMSGKEFKCKVNNRALGSPIEKTISKPRGPVRAPQVYVLPPCAEEMTKKEFSLWCMITGFLPAEIAVDWTSNGRTEQNYKNTATVLDSDGSYFMYSKLRVQKSTWERGSLFACSVVHEGLHNRFTTKTISRSLGK
light: EIVLTQSPGTLSLSPGERATLSCRASQSVSRSYLAWYQQKPGQAPRLLIIGASTRATGIPDRFSGSGSGTDFTLTISRLEPEDFAVYYCQQGQVIPPTFGQGTKVEIKRADAAPTVSIFPPSSEQLTSGGASVVCFLNNFYPKDINVKWKIDGSERQNGVLNSWTDQDSKDSTYSMSSTLTLTKDEYERHNSYTCEATHKTSTSPIVKSFNRNEC
notes: also called mCMV m38-pMHC-I-anti-FAP-IgG; pMHC-I-IgG
B1: the binding result is recorded as “binds”.

B2: IE3-pMHC-I-anti-FAP-IgG (other)
heavy 1: B1 heavy 1 with S1R, S2A, P3L, P4E, M5Y, F6K, R7N, V8L
heavy 2: B1 heavy 2
light: B1 light
notes: Same build as m38-pMHC-I-anti-FAP-IgG, with the control peptide IE3; also called mCMV IE3-pMHC-I-anti-FAP-IgG; control fusion protein
Regarding B2, the binding result is given as “binds”.

Values taken from US20220073630A1 (Hoffmann-La Roche, published 2022).
